T1: Ms1 270-375 (AT-hook + ABD2) (rat, UniProt Q8K4K7 270-375)
T1 sequence: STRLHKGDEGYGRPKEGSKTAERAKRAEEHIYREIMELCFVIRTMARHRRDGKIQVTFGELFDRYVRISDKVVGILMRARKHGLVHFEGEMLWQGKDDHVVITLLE

B1: AT-hook oligo (dsDNA)
DNA 1: CGAATTAATTCG
DNA 2: CGAATTAATTCG
B2: wt oligo (dsDNA)
DNA 1: GACACAAACACAATAG
DNA 2: CTATTGTGTTTGTGTC
B3: A7G oligo (dsDNA)
DNA 1: GACACAGACACAATAG
DNA 2: CTATTGTGTCTGTGTC

Columns and labels:
[1] = target: T1, Ms1 270-375 (AT-hook + ABD2); test: fluorescence titration (intrinsic Trp); conditions: EMSA buffer: 20 mM phosphate, 100 mM NaCl, 0.01% Triton X-100, pH 7.5, room temperature; fluorescence and NMR buffers not given in the material
[2] = target: T1, Ms1 270-375 (AT-hook + ABD2); test: NMR titration; shifts in AT-hook only; 1:0.5 to 1:2; EMSA buffer: 20 mM phosphate, 100 mM NaCl, 0.01% Triton X-100, pH 7.5, room temperature; fluorescence and NMR buffers not given in the material; conditions: protein: recombinant; tags: N-terminal TEV-cleavable poly-His (pLEICS-07); self-complementary
[3] = target: T1, Ms1 270-375 (AT-hook + ABD2); test: fluorescence titration (intrinsic Trp); EMSA buffer: 20 mM phosphate, 100 mM NaCl, 0.01% Triton X-100, pH 7.5, room temperature; fluorescence and NMR buffers not given in the material; conditions: protein: recombinant; tags: N-terminal TEV-cleavable poly-His (pLEICS-07)

Molecule | Kd [3] [µM] | other results
scrambled oligo |  | Kd [1]: 31 µM
B1 |  | binding result [2]: binds
B2 | 8.2 ± 1 | 
B3 | 32 ± 5 | 

— PMC4682817, “The Cardiac Stress Response Factor Ms1 Can Bind to DNA and Has a Function in the Nucleus”
